# According to publication PMC4227968:
# T1: CzrA (Bacillus subtilis, UniProt O31844 1-107)
# T1 sequence: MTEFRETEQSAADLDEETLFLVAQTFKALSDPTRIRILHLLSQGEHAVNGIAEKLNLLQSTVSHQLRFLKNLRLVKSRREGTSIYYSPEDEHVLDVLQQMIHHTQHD
# Biological target: T1, CzrA
# Test: fluorescence anisotropy
binder,measurement,value
cadA promoter operator 28 bp (dsDNA) DNA 1: TTATATATGAGTATATGCTCATATATAT DNA 2: ATATATATGAGCATATACTCATATATAA,binding result,binds
